Test results published in publication PMC3536784, “Structural Characterization of Pandoraea pnomenusa B-356 Biphenyl Dioxygenase Reveals Features of Potent Polychlorinated Biphenyl-Degrading Enzymes” (PLoS ONE, 2013).

Test system: c1ccc(-c2ccccc2)cc1
Assay: purified protein
Conditions: apparent, air-saturated 50 mM MES pH 6.0, NADH 123 µM, BphG B356 and BphF LB400 as electron transfer partners, Fe(II) added, well coupled
Source text: O2 consumption, Clark-type oxygen electrode on BPDOB356 (biphenyl dioxygenase, oxygenase component BphAE)

| Substance | Km | kcat [s⁻¹] | kcat/Km [M⁻¹ s⁻¹] |
| --- | --- | --- | --- |
| BPDOB356 (biphenyl dioxygenase, oxygenase component BphAE) (Comamonas testosteroni; M231T) | 11.1 (3.1) µM | 2.9 | 300000 |
| BPDOB356 (biphenyl dioxygenase, oxygenase component BphAE) (Comamonas testosteroni; M231A) | 9.4 (1.9) µM | 2.1 | 200000 |
